The target of one assay is HLA-B*45:01. Briefly: IEDB peptide-MHC binding, purified MHC/competitive/radioactivity; filed as Kd, often an IC50 or EC50 that approximates it; ≥ and ≤ were set here for values at or beyond the usual limits of such assays.
A further assay concerns the target HLA-B*44:03. The assay is described as above.
The next assay addresses HLA-B*18:01. The assay is described as above.
The target in another assay is HLA-B*40:02. The description is as above.
In the next assay the target is HLA-B*44:02. Described as above.
The next assay deals with HLA-B*40:01. The description is as above.
Assay [1] has as its target HLA-B*07:02. The description is as above. The settings on record: source organism: Vaccinia virus WR.
For a further assay, the target named is HLA-B*35:01. The description is as above.
In the next assay the target is HLA-B*51:01. Described as above.
The target of the next assay is HLA-B*54:01. Described as above.
The target of the next assay is HLA-B*53:01. Described as above.
In assay [2] the target is HLA-B*07:02. As to the kind of experiment: IEDB peptide-MHC binding, purified MHC/direct/fluorescence; filed as Kd, often an IC50 or EC50 that approximates it; ≥ and ≤ were set here for values at or beyond the usual limits of such assays. The settings on record: source organism: SARS-CoV1.
The target in assay [3] is HLA-A*02:01. The assay is described as above. Particulars: source organism: SARS-CoV1.
For a further assay, the target named is HLA-A*69:01. The description is as above. The settings on record: source organism: SARS-CoV1.
A further assay concerns the target HLA-A*68:02. Briefly: IEDB peptide-MHC binding, purified MHC/competitive/radioactivity; filed as Kd, often an IC50 or EC50 that approximates it; ≥ and ≤ were set here for values at or beyond the usual limits of such assays.
Another assay deals with HLA-A*26:01. The description is as above. Particulars: source organism: Dengue virus 2 Jamaica/1409/1983.
In the next assay the target is HLA-A*02:06. The description is as above.
Another assay deals with HLA-A*02:03. The description is as above.
The target in assay [4] is HLA-A*02:01. The assay is described as above.
For another assay, the target named is HLA-A*02:02. Described as above.
The mark [5] stands for this setting: source organism: SARS coronavirus Tor2.
Where [6] appears, read: source organism: Vaccinia virus WR.
[7] abbreviates: source organism: Lymphocytic choriomeningitis virus (strain Armstrong).
Setting [8] is: source organism: Mammarenavirus choriomeningitidis.
The mark [9] stands for this setting: source organism: Lassa virus Josiah.
Setting [10] is: source organism: Lymphocytic choriomeningitis virus (strain WE).
Setting [11] is: source organism: Mammarenavirus guanaritoense.
Setting [12] is: source organism: Trypanosoma cruzi.
Where [13] appears, read: source organism: Hepacivirus hominis.

On to VEFLKDAWEI, for which the Kd came to 4 µM with HLA-B*45:01 (setting [5]); 0.614 µM with HLA-B*44:03 (setting [5]); 3.72 µM with HLA-B*18:01 (setting [5]); 0.0774 µM with HLA-B*40:02 (setting [5]); 0.641 µM with HLA-B*44:02 (setting [5]); 0.965 µM with HLA-B*40:01 (setting [5]).

IDYDCVSFCY: the Kd with HLA-B*45:01 (setting [5]) is 5.8 µM; in the assay with HLA-B*44:03 (setting [5]) it was 0.759 µM; with HLA-B*18:01 (setting [5]), 3 µM; with HLA-B*40:02 (setting [5]), no less than 38.5 µM; with HLA-B*44:02 (setting [5]), 1.55 µM; with HLA-B*40:01 (setting [5]), 10.5 µM.

Consider WPNNCGWKIY, for which the Kd with HLA-B*07:02 [1] was no less than 22.8 µM; with HLA-B*35:01 (setting [6]), 0.593 µM; with HLA-B*51:01 (setting [6]), no less than 69.6 µM; with HLA-B*54:01 (setting [6]) it was 1.14 µM; in the assay with HLA-B*53:01 (setting [6]), 5.57 µM.

As to MPASWVMRI, the Kd with HLA-B*07:02 [2] worked out at 0.508 µM; in the assay with HLA-A*02:01 [3], 8.19 µM; with HLA-A*69:01, 0.017 µM; in the assay with HLA-B*35:01 (setting [5]), 0.206 µM; with HLA-B*51:01 (setting [5]), 0.0671 µM; with HLA-B*54:01 (setting [5]) it was 0.032 µM. Besides, in the assay with HLA-B*53:01 (setting [5]), the Kd came to 0.00124 µM.

Take REFVATTRTL: the equilibrium dissociation constant (Kd) is no less than 30.5 µM with HLA-B*45:01 (setting [7]); 7.56 µM in the assay with HLA-B*44:03 (setting [7]); 14.1 µM with HLA-B*18:01 (setting [7]); 0.0699 µM with HLA-B*40:02 (setting [7]); 3.18 µM with HLA-B*44:02 (setting [7]); 8.64 µM with HLA-B*40:01 (setting [7]).

In the case of YEGNSPFHPL, the Kd with HLA-B*45:01 (setting [5]) was no less than 42.7 µM; with HLA-B*44:03 (setting [5]) it was 16.8 µM; with HLA-B*18:01 (setting [5]) it was 12.3 µM; with HLA-B*40:02 (setting [5]), 0.0122 µM; with HLA-B*44:02 (setting [5]), 8.1 µM; with HLA-B*40:01 (setting [5]), 0.0462 µM.

EDQFLPFMS: the Kd in the assay with HLA-B*45:01 (setting [8]) was no less than 23.9 µM; in the assay with HLA-B*44:03 (setting [8]) it was no less than 39.6 µM; in the assay with HLA-B*18:01 (setting [8]) it was no less than 77.5 µM; with HLA-B*40:02 (setting [8]) it was 7.96 µM; with HLA-B*44:02 (setting [8]), 17.4 µM; with HLA-B*40:01 (setting [8]), 5.67 µM.

ETACLGKSYA: the Kd was determined as 0.00748 µM with HLA-A*68:02 (source organism: Dengue virus 2 Jamaica/1409/1983) and 0.163 µM in the assay with HLA-A*26:01.

With AELLNNQFGT, the Kd with HLA-B*45:01 (setting [9]) was 11.4 µM; with HLA-B*44:03 (setting [9]), 16.6 µM; with HLA-B*18:01 (setting [9]), no less than 70.4 µM; with HLA-B*40:02 (setting [9]), 1.12 µM; in the assay with HLA-B*44:02 (setting [9]), 3.24 µM; with HLA-B*40:01 (setting [9]), 2.32 µM.

LEDFKPRSQM: the Kd with HLA-B*45:01 (setting [5]) was 17.7 µM; in the assay with HLA-B*44:03 (setting [5]), 1.01 µM; with HLA-B*18:01 (setting [5]) it was no less than 37.8 µM; with HLA-B*40:02 (setting [5]) it was 0.0217 µM; with HLA-B*44:02 (setting [5]), 0.622 µM; with HLA-B*40:01 (setting [5]), 1.52 µM.

KEPVESCPL: the Kd with HLA-B*45:01 (setting [10]) was no less than 58.4 µM; with HLA-B*44:03 (setting [10]) it was no less than 78.1 µM; in the assay with HLA-B*18:01 (setting [10]) it was no less than 77.5 µM; in the assay with HLA-B*40:02 (setting [10]), 0.155 µM; with HLA-B*44:02 (setting [10]), no less than 77.9 µM; with HLA-B*40:01 (setting [10]) it was 1.92 µM.

SDYDYYRYNL: the equilibrium dissociation constant (Kd) with HLA-B*45:01 (setting [5]) is no less than 25 µM; in the assay with HLA-B*44:03 (setting [5]), 9.73 µM; with HLA-B*18:01 (setting [5]) it was no less than 70.5 µM; with HLA-B*40:02 (setting [5]), no less than 51.6 µM; with HLA-B*44:02 (setting [5]) it was 12.4 µM; in the assay with HLA-B*40:01 (setting [5]), no less than 69.6 µM.

As for PDFELLLSL, the Kd in the assay with HLA-B*45:01 (setting [11]) is no less than 38.1 µM; with HLA-B*44:03 (setting [11]), no less than 35.8 µM; in the assay with HLA-B*18:01 (setting [11]), 0.701 µM; in the assay with HLA-B*40:02 (setting [11]), 0.00218 µM; in the assay with HLA-B*44:02 (setting [11]), 7.83 µM; in the assay with HLA-B*40:01 (setting [11]) it was 14.6 µM.

Take FANHAFTLV: the Kd in the assay with HLA-A*02:06 (setting [12]) is 0.0012 µM; with HLA-A*68:02 (setting [12]) it was 0.0232 µM; with HLA-A*02:03 (setting [12]), 0.000226 µM; with HLA-A*02:01 [4] (setting [12]), 0.0687 µM; with HLA-A*02:02 (setting [12]) it was 0.0327 µM.

As for KLRGMGFNAV, the Kd is 0.496 µM in the assay with HLA-A*02:06 (setting [13]); no less than 40.6 µM in the assay with HLA-A*68:02 (setting [13]); 0.00205 µM with HLA-A*02:03 (setting [13]); 0.454 µM with HLA-A*02:01 [4] (setting [13]); 0.161 µM with HLA-A*02:02 (setting [13]).

Source of the values: the Immune Epitope Database (IEDB).
